Patent US20250376519A1 (JIANGSU HENGRUI PHARMACEUTICALS, published 2025)

T1: human DLL3 (ACRO, DLL3-H52H4) (human, UniProt Q9NYJ7 27-492)
T1 construct: Bought
T1 sequence: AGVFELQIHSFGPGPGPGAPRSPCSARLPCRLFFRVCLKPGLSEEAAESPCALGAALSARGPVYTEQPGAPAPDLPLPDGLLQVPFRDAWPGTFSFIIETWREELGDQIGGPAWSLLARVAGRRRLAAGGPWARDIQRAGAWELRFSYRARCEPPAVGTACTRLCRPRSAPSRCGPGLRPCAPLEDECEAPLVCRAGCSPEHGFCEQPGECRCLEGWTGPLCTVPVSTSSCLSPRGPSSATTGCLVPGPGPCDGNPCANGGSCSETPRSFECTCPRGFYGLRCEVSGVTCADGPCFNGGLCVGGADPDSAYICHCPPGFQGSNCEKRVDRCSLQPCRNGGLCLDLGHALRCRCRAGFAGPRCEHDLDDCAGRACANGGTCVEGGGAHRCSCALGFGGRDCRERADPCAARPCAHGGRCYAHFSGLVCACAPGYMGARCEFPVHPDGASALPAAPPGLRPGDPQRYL

T2: human DLL3 on cells (human, UniProt Q9NYJ7 27-618)
T2 construct: Endogenous on H1184 and SHP77; Cell line is named under assay; also called H1184; DLL3/H82
T2 sequence: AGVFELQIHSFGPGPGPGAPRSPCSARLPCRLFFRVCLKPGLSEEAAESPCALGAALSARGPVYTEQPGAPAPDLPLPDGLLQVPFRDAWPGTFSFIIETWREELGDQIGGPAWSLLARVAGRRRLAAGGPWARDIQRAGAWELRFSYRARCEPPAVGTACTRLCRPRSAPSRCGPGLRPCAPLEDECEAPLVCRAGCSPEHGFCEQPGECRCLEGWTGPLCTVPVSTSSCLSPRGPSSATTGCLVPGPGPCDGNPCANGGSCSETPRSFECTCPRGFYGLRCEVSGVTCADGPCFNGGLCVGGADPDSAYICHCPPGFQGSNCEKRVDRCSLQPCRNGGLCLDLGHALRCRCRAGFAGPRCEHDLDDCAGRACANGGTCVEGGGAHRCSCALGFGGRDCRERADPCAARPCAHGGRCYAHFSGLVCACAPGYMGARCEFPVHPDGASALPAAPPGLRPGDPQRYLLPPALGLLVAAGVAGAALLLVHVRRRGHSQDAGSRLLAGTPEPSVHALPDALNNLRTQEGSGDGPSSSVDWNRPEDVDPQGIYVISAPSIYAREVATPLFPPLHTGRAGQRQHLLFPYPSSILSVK


Experiments:
[1] = biological target: T1, human DLL3 (ACRO, DLL3-H52H4); experiment: SPR Biacore 8K, Ab captured on Protein A
Excerpt: Test antibodies were affinity-captured with a Protein A biosensor chip (Cat. #29127556, Cytiva) for 18 seconds, and then the antigens human DLL3 (ACRO, DLL3-H52H4), cynomolgus monkey DLL3 (KACTUS, DLL-RM103), mouse DLL3 (KACTUS, DLL-MM103), human CD3D&3E (ACRO, CDD-H52W1), and monkey CD3D&3E (ACRO, CDD-C52W4) were allowed to flow through the surface of the chip for 180 seconds, followed by 600 seconds of dissociation. Reaction signals were detected in real time using a Biacore 8K (Cytiva) instrument to obtain association and dissociation curves. After the dissociation in each experimental cycle, the chip was washed and regenerated with a 10 mM glycine-hydrochloric acid solution (pH 1.5, Cat. #BR-1003-54, Cytiva). Data fitting was performed using a 1:1 Model.

human DLL3 on cells = biological target: T2, human DLL3 on cells; experiment: flow cytometry, DLL3/H82 cells; design: key to Emax: geometric mean fluorescence intensity (flow cytometry)
Method: The plates were centrifuged at 300 g for 5 min, and the supernatant was removed. Different concentrations of test antibodies were added at 100 μL/well. The plates were incubated in the dark in a refrigerator at 4° C. for 1 h. After 3 centrifugal washes at 300 g, working concentrations of APC anti-human IgG Fc (BioLegend, 410712) or PE F(ab′)2-goat anti-human IgG (invitrogen, H10104) were added. The plates were incubated in the dark in a refrigerator at 4° C. for 40 min. After 3 centrifugal washes at 300 g, the geometric mean fluorescence intensity was measured on an Invitrogen flow cytometer, and the EC50 values for the binding of the antibodies to DLL3-expressing cells were calculated.

Binder	Kd [1]	koff [1]	kon [1]	EC50 (human DLL3 on cells)	Emax (human DLL3 on cells)
hu30L2H2 (antibody, human IgG1, kappa) heavy: not shown light: DIVMTQSPDSLAVSLGERATINCKASENVGYVSWYQQKPGQPPKLLIYGASNRYTGVPDRFSGSGSATDFTLTISSLQAEDVAVYHCGQSYSYPLTFGQGTKLEIKRTVAAPSVFIFPPSDEQLKSGTASVVCLLNNFYPREAKVQWKVDNALQSGNSQESVTEQDSKDSTYSLSSTLTLSKADYEKHKVYACEVTHQGLSSPVTKSFNRGEC	1.01 nM	0.000921 s⁻¹	914000 M⁻¹ s⁻¹	0.61 nM	4910
hu30L1H11 (antibody, human IgG1, kappa, V domains shown) VH: EVRLVQFGAVVKKPGASVKVSCKASGYTFTDYYMNWVRQAPGQSLEWMGIINPYTGDTSYNQKFRGRVTLTVDKSSSTAYMELSSLTSEDTAVYYCARYHYGPHLEGYFDVWGQGTTVTVSS VL: DIVMTQSPDSLAVSLGERATINCKASENVGYVSWYQQKPGQPPKLLIYGASNRYTGVPDRFSGSGSGTDFTLTISSLQAEDVAVYYCGQSYSYPLTFGQGTKLEIKR	2.83 nM	0.00117 s⁻¹	414000 M⁻¹ s⁻¹		
hu30L1H1 (antibody, human IgG1, kappa, V domains shown) VH: EVQLVQSGAEVKKPGASVKVSCKASGYTFTDYYMNWVRQAPGQSLEWMGIINPYNGDTSYNQKFRGRVTITVDKSASTAYMELSSLRSEDTAVYYCARYHYGPHLEGYFDVWGQGTTVTVSS VL: DIVMTQSPDSLAVSLGERATINCKASENVGYVSWYQQKPGQPPKLLIYGASNRYTGVPDRFSGSGSGTDFTLTISSLQAEDVAVYYCGQSYSYPLTFGQGTKLEIKR	0.919 nM	0.000787 s⁻¹	857000 M⁻¹ s⁻¹	0.74 nM	5870
hu30L1H3 (antibody, human IgG1, kappa, V domains shown) VH: EVRLVQSGAEVKKPGASVKVSCKASGYTFTDYYMNWVRQAPGQSLEWMGIINPYQGDTSYNQKFRGRVTLTVDKSASTAYMELSSLRSEDTAVYYCARYHYGPHLEGYFDVWGQGTTVTVSS VL: DIVMTQSPDSLAVSLGERATINCKASENVGYVSWYQQKPGQPPKLLIYGASNRYTGVPDRFSGSGSGTDFTLTISSLQAEDVAVYYCGQSYSYPLTFGQGTKLEIKR	1.99 nM	0.00185 s⁻¹	929000 M⁻¹ s⁻¹	0.75 nM	5560
hu30L1H4 (antibody, human IgG1, kappa, V domains shown) VH: EVRLVQSGAEVKKPGASVKVSCKASGYTFTDYYMNWVRQAPGQSLEWMGIINPYSGDTSYNQKFRGRVTLTVDKSASTAYMELSSLRSEDTAVYYCARYHYGPHLEGYFDVWGQGTTVTVSS VL: DIVMTQSPDSLAVSLGERATINCKASENVGYVSWYQQKPGQPPKLLIYGASNRYTGVPDRFSGSGSGTDFTLTISSLQAEDVAVYYCGQSYSYPLTFGQGTKLEIKR	1.28 nM	0.00116 s⁻¹	905000 M⁻¹ s⁻¹	0.57 nM	5360
hu30L1H2 (antibody, human IgG1, kappa) heavy: not shown light: DIVMTQSPDSLAVSLGERATINCKASENVGYVSWYQQKPGQPPKLLIYGASNRYTGVPDRFSGSGSGTDFTLTISSLQAEDVAVYYCGQSYSYPLTFGQGTKLEIKRTVAAPSVFIFPPSDEQLKSGTASVVCLLNNFYPREAKVQWKVDNALQSGNSQESVTEQDSKDSTYSLSSTLTLSKADYEKHKVYACEVTHQGLSSPVTKSFNRGEC	1.32 nM	0.00131 s⁻¹	989000 M⁻¹ s⁻¹	0.86 nM	6050
hu30L1H6 (antibody, human IgG1, kappa, V domains shown) VH: EVRLVQSGAEVKKPGASVKVSCKASGYTFTDYYMNWVRQAPGQSLEWMGIINPYNVDTSYNQKFRGRVTLTVDKSASTAYMELSSLRSEDTAVYYCARYHYGPHLEGYFDVWGQGTTVTVSS VL: DIVMTQSPDSLAVSLGERATINCKASENVGYVSWYQQKPGQPPKLLIYGASNRYTGVPDRFSGSGSGTDFTLTISSLQAEDVAVYYCGQSYSYPLTFGQGTKLEIKR	1.38 nM	0.00143 s⁻¹	1.04e+06 M⁻¹ s⁻¹	0.56 nM	5750
hu30L2H3 (antibody, human IgG1, kappa, V domains shown) VH: EVRLVQSGAEVKKPGASVKVSCKASGYTFTDYYMNWVRQAPGQSLEWMGIINPYQGDTSYNQKFRGRVTLTVDKSASTAYMELSSLRSEDTAVYYCARYHYGPHLEGYFDVWGQGTTVTVSS VL: DIVMTQSPDSLAVSLGERATINCKASENVGYVSWYQQKPGQPPKLLIYGASNRYTGVPDRFSGSGSATDFTLTISSLQAEDVAVYHCGQSYSYPLTFGQGTKLEIKR	1.41 nM	0.00138 s⁻¹	981000 M⁻¹ s⁻¹	0.59 nM	4720
hu30L2H1 (antibody, human IgG1, kappa, V domains shown) VH: EVQLVQSGAEVKKPGASVKVSCKASGYTFTDYYMNWVRQAPGQSLEWMGIINPYNGDTSYNQKFRGRVTITVDKSASTAYMELSSLRSEDTAVYYCARYHYGPHLEGYFDVWGQGTTVTVSS VL: DIVMTQSPDSLAVSLGERATINCKASENVGYVSWYQQKPGQPPKLLIYGASNRYTGVPDRFSGSGSATDFTLTISSLQAEDVAVYHCGQSYSYPLTFGQGTKLEIKR	0.658 nM	0.000571 s⁻¹	867000 M⁻¹ s⁻¹	0.89 nM	5740

Next, values leading:

Kd [1]	koff [1]	kon [1]	EC50 (human DLL3 on cells)	Emax (human DLL3 on cells)	Binder
2.16 nM	0.000919 s⁻¹	427000 M⁻¹ s⁻¹			hu30L4H10 (antibody, human IgG1, kappa, V domains shown) VH: EVRLVQSGAEVKKPGASVKVSCKASGYTFTDYYMNWVRQSHGQSLEWMGIINPYTGDTSYNQKFRGRVTLTVDKSASTAYMELSSLRSEDTAVYYCARYHYGPHLEGYFDVWGQGTTVTVSS VL: DIQMTQSPSSLSASVGDRVTITCKASENVGYVSWYQQKPGKAPKLLIYGASNRYTGVPSRFSGSGSGTDFTLTISSLQPEDFATYYCGQSYSYPLTFGQGTKLEIKR
2.05 nM	0.000949 s⁻¹	464000 M⁻¹ s⁻¹			hu30L5H10 (antibody, human IgG1, kappa, V domains shown) VH: EVRLVQSGAEVKKPGASVKVSCKASGYTFTDYYMNWVRQSHGQSLEWMGIINPYTGDTSYNQKFRGRVTLTVDKSASTAYMELSSLRSEDTAVYYCARYHYGPHLEGYFDVWGQGTTVTVSS VL: DIQMTQSPSSLSASVGDRVTITCKASENVGYVSWYQQKPGKSPKLLIYGASNRYTGVPDRFSGSGSGTDFTLTISSLQPEDFATYYCGQSYSYPLTFGSGTKLEIKR
3.06 nM	0.0012 s⁻¹	391000 M⁻¹ s⁻¹			hu30L5H11 (antibody, human IgG1, kappa, V domains shown) VH: EVRLVQFGAVVKKPGASVKVSCKASGYTFTDYYMNWVRQAPGQSLEWMGIINPYTGDTSYNQKFRGRVTLTVDKSSSTAYMELSSLTSEDTAVYYCARYHYGPHLEGYFDVWGQGTTVTVSS VL: DIQMTQSPSSLSASVGDRVTITCKASENVGYVSWYQQKPGKSPKLLIYGASNRYTGVPDRFSGSGSGTDFTLTISSLQPEDFATYYCGQSYSYPLTFGSGTKLEIKR
2.54 nM	0.00102 s⁻¹	400000 M⁻¹ s⁻¹			hu30L5H8 (antibody, human IgG1, kappa, V domains shown) VH: EVRLVQFGAVVKKPGASVKVSCKASGYTFTDYYMNWVRQAPGQSLEWMGIINPYTGDTSYNQKFRGRVTLTVDKSSSTAYMELSSLRSEDTAVYYCARYHYGPHLEGYFDVWGQGTTVTVSS VL: DIQMTQSPSSLSASVGDRVTITCKASENVGYVSWYQQKPGKSPKLLIYGASNRYTGVPDRFSGSGSGTDFTLTISSLQPEDFATYYCGQSYSYPLTFGSGTKLEIKR
